Read-outs that look alike come from different tables or passages of the source.

Common to all, as to test: SPR
Background: SPR reads the build-up and loss of mass on a sensor chip optically.

The target in test [1] is Fc-tagged sFRP2 Fzl domain (mouse).
Test [2] has as its target T1, FLAG-tagged BMP1 (human, UniProt P13497-2 23-730).
T1 sequence (looked up): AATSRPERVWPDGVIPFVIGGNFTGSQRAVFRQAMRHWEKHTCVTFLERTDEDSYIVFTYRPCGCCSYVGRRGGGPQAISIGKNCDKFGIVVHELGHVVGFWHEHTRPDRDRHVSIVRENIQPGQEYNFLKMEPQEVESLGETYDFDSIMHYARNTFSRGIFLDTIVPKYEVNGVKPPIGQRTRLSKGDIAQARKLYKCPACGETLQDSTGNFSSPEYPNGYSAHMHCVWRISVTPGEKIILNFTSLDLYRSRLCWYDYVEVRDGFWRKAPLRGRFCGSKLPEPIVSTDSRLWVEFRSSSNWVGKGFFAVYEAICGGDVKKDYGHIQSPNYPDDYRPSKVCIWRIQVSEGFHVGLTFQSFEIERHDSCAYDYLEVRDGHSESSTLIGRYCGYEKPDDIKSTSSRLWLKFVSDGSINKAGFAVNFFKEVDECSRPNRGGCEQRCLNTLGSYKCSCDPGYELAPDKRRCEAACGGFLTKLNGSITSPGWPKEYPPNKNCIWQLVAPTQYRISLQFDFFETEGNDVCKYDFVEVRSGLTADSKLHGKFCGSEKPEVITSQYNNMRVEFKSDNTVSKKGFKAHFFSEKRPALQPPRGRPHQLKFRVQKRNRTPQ

Test [3] deals with T1, FLAG-tagged BMP1. This is another data set of the same source.

As a reminder, the Kd is the free concentration of one partner at which half of the binding sites on the other are occupied at equilibrium, for simple one-to-one binding. The low end stands for a tighter complex, the high end for a looser complex. Regarding “FLAG-tagged BMP1 (from UniProt P13497-2 23-730) (enzyme)”, the Kd in test [1] came to 8.68 nM.

B1: His-tagged sFRP2 (natural protein, mouse, UniProt P97299 25-295, looked up)
chain: LFLFGQPDFSYKRSNCKPIPANLQLCHGIEYQNMRLPNLLGHETMKEVLEQAGAWIPLVMKQCHPDTKKFLCSLFAPVCLDDLDETIQPCHSLCVQVKDRCAPVMSAFGFPWPDMLECDRFPQDNDLCIPLASSDHLLPATEEAPKVCEACKTKNEDDNDIMETLCKNDFALKIKVKEITYINRDTKIILETKSKTIYKLNGVSERDLKKSVLWLKDSLQCTCEEMNDINAPYLVMGQKQGGELVITSVKRWQKGQREFKRISRSIRKLQC
B1 registered a Kd in test [2] of 7.13 nM.

B2: full-length sFRP2-Fc (Fc fusion, mouse, UniProt P97299 25-295, looked up)
chain: LFLFGQPDFSYKRSNCKPIPANLQLCHGIEYQNMRLPNLLGHETMKEVLEQAGAWIPLVMKQCHPDTKKFLCSLFAPVCLDDLDETIQPCHSLCVQVKDRCAPVMSAFGFPWPDMLECDRFPQDNDLCIPLASSDHLLPATEEAPKVCEACKTKNEDDNDIMETLCKNDFALKIKVKEITYINRDTKIILETKSKTIYKLNGVSERDLKKSVLWLKDSLQCTCEEMNDINAPYLVMGQKQGGELVITSVKRWQKGQREFKRISRSIRKLQC
As to B2, the Kd in test [3] was ~6.01 nM.
